What was measured:
[1] = target: cMet-Fc fusion protein (Homo sapiens, UniProt P08581); test: Protein phage ELISA: peptide-displaying phage binding to soluble cMet-Fc versus TRAIL-Fc; details: phage isolate; cMet-Fc vs. TRAIL-Fc
Protocol: Protein phage ELISAs using peptide-displaying phage isolates from the various selection campaigns were performed to determine specificity of the peptides for cMet versus an unrelated Fc-fusion protein (TRAIL-Fc). Briefly, 384-well plates were coated overnight at 4 C with 0.5 μg/mL of cMet-Fc fusion protein or TRAIL-Fc fusion protein (background). The plates were blocked for 2 hours 37C with 3% (w/v) BSA in PBS containing 0.05% (v/v) Tween-20 (PBST). The plates were washed with PBST and 100 μL of peptide-displaying phage were added to each well. The plates were incubated for 2 hours at room temperature and washed with PBST. cMet-binding peptide-displaying phage were detected using an HRP-conjugated anti-M13 antibody.

[2] = target: T1, 3T3 cells that over-express human cMet (Homo sapiens, UniProt P08581); test: Whole cell ELISA of peptide-displaying phage; assay type: cell-based; details: phage isolate; 3T3 cells expressing human cMet vs. non-expressing 3T3 cells
T1 construct: expressed in transfected cells; host or cells: 3T3 cells
T1 sequence (P08581 25-1390): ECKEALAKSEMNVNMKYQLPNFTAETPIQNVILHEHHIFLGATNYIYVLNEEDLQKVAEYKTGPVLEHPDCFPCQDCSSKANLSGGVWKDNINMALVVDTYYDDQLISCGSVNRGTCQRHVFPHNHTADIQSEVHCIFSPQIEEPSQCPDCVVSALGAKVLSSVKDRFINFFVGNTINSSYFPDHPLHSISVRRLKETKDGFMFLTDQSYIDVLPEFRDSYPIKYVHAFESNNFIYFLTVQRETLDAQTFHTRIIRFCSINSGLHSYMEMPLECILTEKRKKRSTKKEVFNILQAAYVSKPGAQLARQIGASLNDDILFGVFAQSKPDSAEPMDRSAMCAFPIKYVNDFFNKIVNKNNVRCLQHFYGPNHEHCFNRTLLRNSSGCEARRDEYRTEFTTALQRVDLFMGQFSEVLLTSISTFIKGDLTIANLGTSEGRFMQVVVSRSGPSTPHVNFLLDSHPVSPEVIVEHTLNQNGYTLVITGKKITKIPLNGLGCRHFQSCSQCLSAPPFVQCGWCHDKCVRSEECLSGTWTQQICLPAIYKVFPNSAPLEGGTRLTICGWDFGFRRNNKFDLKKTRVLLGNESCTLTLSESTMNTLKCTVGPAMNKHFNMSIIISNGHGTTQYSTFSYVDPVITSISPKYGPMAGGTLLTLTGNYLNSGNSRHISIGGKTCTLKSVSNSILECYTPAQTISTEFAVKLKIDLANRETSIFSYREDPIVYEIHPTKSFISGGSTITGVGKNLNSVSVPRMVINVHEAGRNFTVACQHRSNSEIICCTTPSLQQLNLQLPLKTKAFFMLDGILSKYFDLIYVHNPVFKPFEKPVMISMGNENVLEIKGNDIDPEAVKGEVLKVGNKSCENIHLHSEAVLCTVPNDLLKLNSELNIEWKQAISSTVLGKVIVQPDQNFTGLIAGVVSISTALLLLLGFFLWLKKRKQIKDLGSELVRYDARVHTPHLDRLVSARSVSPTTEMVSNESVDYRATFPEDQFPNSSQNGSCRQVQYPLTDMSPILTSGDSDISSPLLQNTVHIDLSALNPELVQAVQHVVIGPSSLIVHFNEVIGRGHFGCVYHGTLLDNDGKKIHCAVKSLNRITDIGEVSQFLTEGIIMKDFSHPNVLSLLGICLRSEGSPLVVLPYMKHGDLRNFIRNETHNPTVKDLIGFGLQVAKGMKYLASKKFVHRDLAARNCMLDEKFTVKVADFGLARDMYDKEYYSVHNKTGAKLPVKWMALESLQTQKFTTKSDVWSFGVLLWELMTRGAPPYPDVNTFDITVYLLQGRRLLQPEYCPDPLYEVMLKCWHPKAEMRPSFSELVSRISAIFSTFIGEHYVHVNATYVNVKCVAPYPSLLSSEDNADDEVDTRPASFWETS
Protocol: Whole cell ELISAs were performed using 3T3 cells that over-express human cMet. […] Briefly, 96-well plates were seeded with 10^5 cells per well. The plates were centrifuged for 5 minutes at 1600 rpm to pellet the cells. The resulting cell layer was fixed with 0.1% (v/v) glutaraldehyde for 12 minutes at 37 C. […] Peptide-displaying phage also were blocked in the above solution for 1 hour at 37 C. 100 μL of blocked phage was then added to each well and the plates were incubated for 1 hour at room temperature. The plates were washed with PBST. cMet-binding peptide-displaying phage were detected using an HRP-conjugated anti-M13 antibody.

cMet-Fc fusion protein, sequence (P08581 25-307 limits assumed): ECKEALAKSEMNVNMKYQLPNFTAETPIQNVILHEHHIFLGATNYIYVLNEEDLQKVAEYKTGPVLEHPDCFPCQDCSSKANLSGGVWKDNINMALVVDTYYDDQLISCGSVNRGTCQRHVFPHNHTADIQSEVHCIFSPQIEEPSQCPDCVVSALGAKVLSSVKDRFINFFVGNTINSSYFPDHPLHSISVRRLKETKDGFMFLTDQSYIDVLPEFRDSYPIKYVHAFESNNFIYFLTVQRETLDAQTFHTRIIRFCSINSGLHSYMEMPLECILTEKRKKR
cMet-Fc fusion protein, sequence (P08581 with tags, fused parts or gaps limits assumed): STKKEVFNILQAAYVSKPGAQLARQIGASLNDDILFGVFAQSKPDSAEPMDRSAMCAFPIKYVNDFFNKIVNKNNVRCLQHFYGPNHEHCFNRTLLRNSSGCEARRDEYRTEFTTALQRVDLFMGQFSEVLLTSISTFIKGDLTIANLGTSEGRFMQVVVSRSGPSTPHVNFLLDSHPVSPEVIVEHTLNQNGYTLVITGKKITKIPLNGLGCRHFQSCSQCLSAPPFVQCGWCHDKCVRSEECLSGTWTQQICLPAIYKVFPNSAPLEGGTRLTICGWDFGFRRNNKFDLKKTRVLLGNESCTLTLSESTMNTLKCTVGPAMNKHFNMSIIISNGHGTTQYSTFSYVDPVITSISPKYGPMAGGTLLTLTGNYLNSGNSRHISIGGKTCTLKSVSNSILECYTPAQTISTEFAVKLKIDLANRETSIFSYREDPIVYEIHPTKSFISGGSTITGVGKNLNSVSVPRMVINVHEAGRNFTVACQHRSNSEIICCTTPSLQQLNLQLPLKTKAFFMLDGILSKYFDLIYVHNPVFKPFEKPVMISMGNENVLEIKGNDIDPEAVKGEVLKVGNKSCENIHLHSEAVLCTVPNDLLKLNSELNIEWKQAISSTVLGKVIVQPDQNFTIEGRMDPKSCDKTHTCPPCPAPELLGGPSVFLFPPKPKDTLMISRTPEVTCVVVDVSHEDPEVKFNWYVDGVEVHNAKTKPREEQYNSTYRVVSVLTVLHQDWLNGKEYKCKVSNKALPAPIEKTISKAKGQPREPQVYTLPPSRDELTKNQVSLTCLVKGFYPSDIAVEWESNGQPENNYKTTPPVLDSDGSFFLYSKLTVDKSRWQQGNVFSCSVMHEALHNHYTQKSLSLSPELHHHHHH

| Compound | Protein ELISA [1] | WC ELISA [2] |
| --- | --- | --- |
| GSMNMCDTTDEISPTCHPSAP (Synthetically generated cMet-binding peptide sequence) [SEQ ID NO: 378] | 3.6 fold over background | 1.40 fold over background |
| AGQMWCAEKNSKCYQWGT (Synthetically generated cMet-binding peptide sequence) [SEQ ID NO: 030] | 3.2 fold over background | 1.27 fold over background |
| AQQWMFQIHQSMAWPYEWIDSY (Synthetically generated cMet-binding peptide sequence) [SEQ ID NO: 494] | 3.9 fold over background | 1.23 fold over background |
| CC[C@H](C)[C@H](NC(=O)[C@H](Cc1ccccc1)NC(=O)[C@H](CCC(N)=O)NC(=O)[C@H](Cc1ccccc1)NC(=O)[C@@H](NC(=O)[C@H](Cc1c[nH]c2ccccc12)NC(=O)[C@@H](NC(=O)[C@H](CC(=O)O)NC(=O)[C@H](Cc1ccc(O)cc1)NC(=O)[C@H](CCC(N)=O)NC(=O)[C@H](C)NC(C)=O)[C@@H](C)O)C(C)C)C(=O)N[C@@H](Cc1c[nH]cn1)C(=O)N[C@@H](CCC(=O)O)C(=O)N[C@H](C(=O)N1CCC[C@H]1C(=O)NCC(=O)N[C@@H](CCC(=O)O)C(=O)N[C@@H](CC(C)C)C(=O)N[C@H](C(=O)N[C@@H](C)C(=O)N[C@@H](CCSC)C(=O)N[C@@H](CCC(N)=O)C(=O)NCC(=O)NCC(=O)NCC(=O)N[C@@H](CCCCNC(=O)c1ccc2c(c1)C(=O)OC21c2ccc(O)cc2Oc2cc(O)ccc21)C(N)=O)C(C)C)C(C)C [SEQ ID NO: 454] | 8.9 fold over background | 1.23 fold over background |
| CSCC[C@H](NC(=O)[C@H](Cc1ccccc1)NC(=O)[C@H](CCC(N)=O)NC(=O)[C@@H](NC(=O)[C@@H]1CCCN1C(=O)[C@H](CCSC)NC(=O)[C@H](Cc1c[nH]c2ccccc12)NC(=O)[C@@H](NC(=O)[C@H](CC(=O)O)NC(=O)[C@H](CCSC)NC(=O)[C@H](CCC(N)=O)NC(=O)[C@H](CCCNC(=N)N)NC(=O)[C@H](CCC(N)=O)NC(=O)[C@@H](NC(=O)[C@H](CO)NC(=O)[C@H](Cc1c[nH]cn1)NC(=O)[C@H](CCC(N)=O)NC(=O)[C@H](C)NC(C)=O)C(C)C)C(C)C)C(C)C)C(=O)N[C@@H](C)C(=O)NCC(=O)N[C@@H](Cc1ccccc1)C(=O)N[C@H](C(=O)NCC(=O)NCC(=O)NCC(=O)N[C@@H](CCCCNC(=O)c1ccc2c(c1)C(=O)OC21c2ccc(O)cc2Oc2cc(O)ccc21)C(N)=O)[C@@H](C)O [SEQ ID NO: 467] | 3.9 fold over background | 1.30 fold over background |
| AGHGTCRGWPTFECIYFGT (Synthetically generated cMet-binding peptide sequence) [SEQ ID NO: 064] | 6.0 fold over background | 1.40 fold over background |
| AQWNQWDEFMWFLNPPPIGLMW (Synthetically generated cMet-binding peptide sequence) [SEQ ID NO: 480] | 3.3 fold over background | 1.23 fold over background |
| CC[C@H](C)[C@H](NC(=O)[C@H](Cc1c[nH]c2ccccc12)NC(=O)CNC(=O)[C@H](C)NC(C)=O)C(=O)N[C@@H](CO)C(=O)N[C@H]1CSSC[C@@H](C(=O)N[C@@H](Cc2c[nH]c3ccccc23)C(=O)N2CCC[C@H]2C(=O)NCC(=O)NCC(=O)N[C@H](C(=O)NCC(=O)NCC(=O)NCC(=O)N[C@@H](CCCCNC(=O)c2ccc3c(c2)C(=O)OC32c3ccc(O)cc3Oc3cc(O)ccc32)C(N)=O)[C@@H](C)O)NC(=O)[C@H](C)NC(=O)[C@H](Cc2ccccc2)NC(=O)[C@H]([C@@H](C)O)NC(=O)[C@@H]2CCCN2C(=O)[C@@H]2CCCN2C(=O)CNC(=O)[C@H](C)NC1=O [SEQ ID NO: 056] | 14.3 fold over background | 1.23 fold over background |

From patent publication US9845340B2, “Peptides that specifically bind HGF receptor (cMet) and uses thereof” (Dyax Corp., priority 2003, dated 2017)
